These results are taken from IntAct's records for PubMed 19787799.

The labels stand for the following.
B1: Protein ERGIC-53 (Homo sapiens), P49257 (parent)
chain: MAGSRQRGLRARVRPLFCALLLSLGRFVRGDGVGGDPAVALPHRRFEYKYSFKGPHLVQSDGTVPFWAHAGNAIPSSDQIRVAPSLKSQRGSVWTKTKAAFENWEVEVTFRVTGRGRIGADGLAIWYAENQGLEGPVFGSADLWNGVGIFFDSFDNDGKKNNPAIVIIGNNGQIHYDHQNDGASQALASCQRDFRNKPYPVRAKITYYQNTLTVMINNGFTPDKNDYEFCAKVENMIIPAQGHFGISAATGGLADDHDVLSFLTFQLTEPGKEPPTPDKEISEKEKEKYQEEFEHFQQELDKKKEEFQKGHPDLQGQPAEEIFESVGDRELRQVFEGQNRIHLEIKQLNRQLDMILDEQRRYVSSLTEEISKRGAGMPGQHGQITQQELDTVVKTQHEILRQVNEMKNSMSETVRLVSGMQHPGSAGGVYETTQHFIDIKEHLHIVKRDIDNLVQRNMPSNEKPKCPELPPFPSCLSTVHFIIFVVVQTVLFIGYIMYRSQQEAAAKKFF
partner: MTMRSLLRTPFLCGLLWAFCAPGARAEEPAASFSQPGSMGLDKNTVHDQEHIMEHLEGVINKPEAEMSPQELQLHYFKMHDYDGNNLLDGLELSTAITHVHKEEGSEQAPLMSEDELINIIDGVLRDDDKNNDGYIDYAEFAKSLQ

The test covers variants of B1. The conditions noted are these: with mcfd2_human MCFD2, Q8NI22.
Regarding W67S, the “effect of a mutation on the interaction” value is “disrupting interaction strength”.
